{"source": "paper PMC11882963", "about": "(Nature Communications, 2024)", "key": {"[1]": {"molecular_target": "the molecule itself", "experiment": "mass photometry"}, "[2]": {"molecular_target": "T1, MntR D27A (Bacillus subtilis, UniProt P54512 1-142, D27A)", "T1 sequence": "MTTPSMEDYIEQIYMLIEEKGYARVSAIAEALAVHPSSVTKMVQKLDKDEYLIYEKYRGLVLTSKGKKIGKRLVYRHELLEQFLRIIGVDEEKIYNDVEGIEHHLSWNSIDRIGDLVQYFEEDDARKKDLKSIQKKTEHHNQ", "experiment": "mass photometry"}, "[3]": {"molecular_target": "T2, MntR WT (Bacillus subtilis, UniProt P54512 1-142)", "T2 sequence": "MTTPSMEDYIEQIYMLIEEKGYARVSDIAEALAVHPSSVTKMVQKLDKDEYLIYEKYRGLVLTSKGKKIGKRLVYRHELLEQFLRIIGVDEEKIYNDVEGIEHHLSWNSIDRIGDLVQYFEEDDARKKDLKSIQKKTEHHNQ", "experiment": "cryo-EM"}, "[4]": {"molecular_target": "T3, MntR Y22A (Bacillus subtilis, UniProt P54512 1-142, Y22A)", "T3 sequence": "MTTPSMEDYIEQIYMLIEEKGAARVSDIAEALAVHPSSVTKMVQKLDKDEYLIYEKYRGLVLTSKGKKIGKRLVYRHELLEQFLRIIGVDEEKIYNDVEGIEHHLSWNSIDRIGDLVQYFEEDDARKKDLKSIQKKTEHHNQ", "experiment": "mass photometry"}, "[5]": {"molecular_target": "T2, MntR WT", "experiment": "mass photometry"}, "[6]": {"molecular_target": "T1, MntR D27A", "experiment": "mass photometry", "remark": "listed apart in the source"}, "[7]": {"molecular_target": "T3, MntR Y22A", "experiment": "FSEC"}, "[8]": {"molecular_target": "T1, MntR D27A", "experiment": "FSEC"}, "[9]": {"molecular_target": "T2, MntR WT", "experiment": "FSEC"}, "[10]": {"molecular_target": "T2, MntR WT", "experiment": "FSEC", "remark": "listed apart in the source"}}}
{"binder": "Bacillus subtilis MntR, wild type (natural protein) MTTPSMEDYIEQIYMLIEEKGYARVSDIAEALAVHPSSVTKMVQKLDKDEYLIYEKYRGLVLTSKGKKIGKRLVYRHELLEQFLRIIGVDEEKIYNDVEGIEHHLSWNSIDRIGDLVQYFEEDDARKKDLKSIQKKTEHHNQ", "values": [{"measurement": "stoichiometry N", "setting": "[1]", "result": 2}]}
{"binder": "P84 (mneP regulatory region) (dsDNA) DNA 1: CCTTTTTAGCATAGCTCCAACTTTTTTTCTGTCACCTTATTTATTAGTAAACAGGAAACAACGTTGCTATAGACCCACTCGAAG DNA 2: CTTCGAGTGGGTCTATAGCAACGTTGTTTCCTGTTTACTAATAAATAAGGTGACAGAAAAAAAGTTGGAGCTATGCTAAAAAGG", "values": [{"measurement": "binding result", "setting": "[2]", "result": "binds"}, {"measurement": "binding result", "setting": "[3]", "result": "binds"}]}
{"binder": "C84 (four consensus MntR sites) (dsDNA) DNA 1: CCTTTTTTGCCTTAAGGAAACTTTTTTGCCTTAAGGAAACTTATTTGCCTTAAGGAAACTACTTTGCCTTAAGGAAACTCGAAG DNA 2: CTTCGAGTTTCCTTAAGGCAAAGTAGTTTCCTTAAGGCAAATAAGTTTCCTTAAGGCAAAAAAGTTTCCTTAAGGCAAAAAAGG", "values": [{"measurement": "binding result", "setting": "[4]", "result": "binds"}, {"measurement": "binding result", "setting": "[5]", "result": "binds"}, {"measurement": "binding result", "setting": "[6]", "result": "binds"}]}
{"binder": "H26 (mntH operator) (dsDNA) DNA 1: GATAATTTGCCTTAAGGAAACTCTTC DNA 2: GAAGAGTTTCCTTAAGGCAAATTATC", "values": [{"measurement": "binding result", "setting": "[7]", "result": "binds"}, {"measurement": "binding result", "setting": "[8]", "result": "binds"}, {"measurement": "binding result", "setting": "[9]", "result": "binds"}]}
{"binder": "P26 (mneP site 1) (dsDNA) DNA 1: CAACGTTGCTATAGACCCACTCGAAA DNA 2: TTTCGAGTGGGTCTATAGCAACGTTG", "values": [{"measurement": "binding result", "setting": "[10]", "result": "no binding"}, {"measurement": "binding result", "setting": "[7]", "result": "no binding"}, {"measurement": "binding result", "setting": "[8]", "result": "no binding"}]}
